In article PMC12285254:

Test system: T1, TetR1 (C_22735) (Pseudomonas syringae pv. actinidiae biovar 3 strain S26 (M228)), ORF:bd32bde6
T1 sequence: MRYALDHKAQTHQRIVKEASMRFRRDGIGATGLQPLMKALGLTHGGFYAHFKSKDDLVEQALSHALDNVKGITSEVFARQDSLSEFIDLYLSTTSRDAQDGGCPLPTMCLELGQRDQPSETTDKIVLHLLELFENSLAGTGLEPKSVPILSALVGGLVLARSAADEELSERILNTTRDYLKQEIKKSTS
Assay: EMSA
Details: LightShift EMSA Optimization and Control kit (Thermo) per manufacturer, 100 ng probe per reaction, varied protein; 2 uL of 1 mg/mL Myc.A7 for supershift …

## TTGAGTCGAGGATCACAATCTTCTGAAACATGGGCTTACCCTGATTTAATGGTGTGCAAGCCCTATAGCGATAACCATGCCAGCTTAAAAATATAAATAAGCCACTGATTTATAACGATATTTTAAAATATGAAATCCTTTGCAATACAAAACTTTGCGCAAACCGTTTTTTGCCACAACAGCTTTTGGCACAAAAACATCGGCCAGCTTCGCAAGGGAACTGATCCGGGACCGTGACCCACTCAGCGAACATAACCCGGCT (double strand) [hrpL upstream probe (262 bp)]
  binding: binds
